# According to publication PMC7049810, “Outer membrane lipoprotein NlpI scaffolds peptidoglycan hydrolases within multi‐enzyme complexes in Escherichia coli” (The EMBO Journal, 2020):
# T1: PBP1A, purified (Escherichia coli, UniProt P02918 1-850, NT647 RED-NHS dye on amines (PBP1A was the labelled protein in all MST assays))
# T1 construct: Bifunctional peptidoglycan synthase PBP1A of E. coli; also called fl-PBP1A (fluorescently labelled); source: purified as described previously in Born et al (2006)
# T1 sequence (looked up): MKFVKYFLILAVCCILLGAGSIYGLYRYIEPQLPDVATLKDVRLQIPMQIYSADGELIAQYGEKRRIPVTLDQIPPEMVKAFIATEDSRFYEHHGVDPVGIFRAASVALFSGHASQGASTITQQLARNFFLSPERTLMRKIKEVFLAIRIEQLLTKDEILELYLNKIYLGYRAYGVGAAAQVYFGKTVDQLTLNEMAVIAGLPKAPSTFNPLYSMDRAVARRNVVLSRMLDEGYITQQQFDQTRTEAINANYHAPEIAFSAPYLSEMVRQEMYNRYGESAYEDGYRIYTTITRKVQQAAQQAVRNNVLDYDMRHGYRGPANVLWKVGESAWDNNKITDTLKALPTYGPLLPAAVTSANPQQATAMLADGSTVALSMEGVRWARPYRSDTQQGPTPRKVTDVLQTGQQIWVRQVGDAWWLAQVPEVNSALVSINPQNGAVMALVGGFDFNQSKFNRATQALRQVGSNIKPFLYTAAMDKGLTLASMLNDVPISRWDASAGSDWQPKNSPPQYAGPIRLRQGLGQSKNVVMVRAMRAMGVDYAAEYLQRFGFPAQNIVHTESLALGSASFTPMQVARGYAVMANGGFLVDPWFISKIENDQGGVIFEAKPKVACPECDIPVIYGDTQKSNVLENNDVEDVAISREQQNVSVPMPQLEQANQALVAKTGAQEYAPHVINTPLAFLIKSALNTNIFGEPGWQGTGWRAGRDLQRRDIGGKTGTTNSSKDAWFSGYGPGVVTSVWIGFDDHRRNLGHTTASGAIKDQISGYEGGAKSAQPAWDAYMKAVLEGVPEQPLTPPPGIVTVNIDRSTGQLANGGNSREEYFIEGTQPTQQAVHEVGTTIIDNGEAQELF
# B1: PBP4, native, purified (enzyme, Escherichia coli, UniProt P24228 21-477, looked up)
# chain: ANVDEYITQLPAGANLALMVQKVGASAPAIDYHSQQMALPASTQKVITALAALIQLGPDFRFTTTLETKGNVENGVLKGDLVARFGADPTLKRQDIRNMVATLKKSGVNQIDGNVLIDTSIFASHDKAPGWPWNDMTQCFSAPPAAAIVDRNCFSVSLYSAPKPGDMAFIRVASYYPVTMFSQVRTLPRGSAEAQYCELDVVPGDLNRFTLTGCLPQRSEPLPLAFAVQDGASYAGAILKDELKQAGITWSGTLLRQTQVNEPGTVVASKQSAPLHDLLKIMLKKSDNMIADTVFRMIGHARFNVPGTWRAGSDAVRQILRQQAGVDIGNTIIADGSGLSRHNLIAPATMMQVLQYIAQHDNELNFISMLPLAGYDGSLQYRAGLHQAGVDGKVSAKTGSLQGVYNLAGFITTASGQRMAFVQYLSGYAVEPADQRNRRIPLVRFESRLYKDIYQNN
# modifications: where used as the labelled protein in MST: NT647 RED-NHS dye on amines
# notes: PBP4 (DD-endopeptidase) of E. coli, 'native PBP4' purified after Kishida et al (2006); Untagged ('native'); source: E. coli BL21 (λDE3), purified (HiTrap Q, hydroxyapatite, Superdex 200)
# B2: LpoA, purified (natural protein, Escherichia coli, UniProt P45464 27-678, looked up)
# chain: CGTHTPDQSTAYMQGTAQADSAFYLQQMQQSSDDTRINWQLLAIRALVKEGKTGQAVELFNQLPQELNDAQRREKTLLAVEIKLAQKDFAGAQNLLAKITPADLEQNQQARYWQAKIDASQGRPSIDLLRALIAQEPLLGAKEKQQNIDATWQALSSMTQEQANTLVINADENILQGWLDLQRVWFDNRNDPDMMKAGIADWQKRYPNNPGAKMLPTQLVNVKAFKPASTNKIALLLPLNGQAAVFGRTIQQGFEAAKNIGTQPVAAQVAAAPAADVAEQPQPQTVDGVASPAQASVSDLTGEQPAAQPVPVSAPATSTAAVSAPANPSAELKIYDTSSQPLSQILSQVQQDGASIVVGPLLKNNVEELLKSNTPLNVLALNQPENIENRVNICYFALSPEDEARDAARHIRDQGKQAPLVLIPRSSLGDRVANAFAQEWQKLGGGTVLQQKFGSTSELRAGVNGGSGIALTGSPITLRATTDSGMTTNNPTLQTTPTDDQFTNNGGRVDAVYIVATPGEIAFIKPMIAMRNGSQSGATLYASSRSAQGTAGPDFRLEMEGLQYSEIPMLAGGNLPLMQQALSAVNNDYSLARMYAMGVDAWSLANHFSQMRQVQGFEINGNTGSLTANPDCVINRNLSWLQYQQGQVVPVS
# modifications: where used as the labelled protein in MST: NT647 RED-Maleimide dye on cysteines
# notes: called LpoA^sol in the TPase methods; also called LpoA^sol; fl-LpoA; source: purified as described previously in Jean et al (2014)
# What was measured:
# Conditions in all cases: both partners purified
# [1] = target: B1; assay: MST + pull-down; endopeptidases tested against each other, 'a combination of MST and Ni2+-NTA pull-down assays'; all combinations of MepM, MepS, PBP4, PBP7
# [2] = target: T2, NlpI, soluble version lacking its membrane anchor (Escherichia coli, UniProt P0AFB1 20-294, where used as fl-NlpI in MST: NT647 RED-NHS dye on amines); assay: MST; titration: NT647-labelled protein against a two-fold serial dilution (16 steps) of unlabelled ligand; 25 mM HEPES/NaOH, 150 mM NaCl, 0.05% Triton X-100, pH 7.5; Monolith NT.115; apparent constants; for NlpI with itself: dimer to monomers
# T2 construct: Outer membrane lipoprotein NlpI of E. coli, soluble version lacking its membrane anchor; Homodimer by AUC; also called fl-NlpI (fluorescently labelled); His-NlpI; source: E. coli BL21 (λDE3), purified (HisTrap HP, Superdex 200)
# T2 sequence (P0AFB1 20-294): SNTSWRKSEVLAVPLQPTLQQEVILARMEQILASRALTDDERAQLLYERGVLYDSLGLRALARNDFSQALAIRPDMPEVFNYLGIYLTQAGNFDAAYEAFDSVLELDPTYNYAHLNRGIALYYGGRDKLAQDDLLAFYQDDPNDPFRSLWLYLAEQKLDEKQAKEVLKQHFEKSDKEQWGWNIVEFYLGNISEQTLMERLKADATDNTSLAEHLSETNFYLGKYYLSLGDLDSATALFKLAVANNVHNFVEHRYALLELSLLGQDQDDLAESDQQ
# [3] = target: B2; assay: as above
# [4] = target: T1, PBP1A, purified; assay: as above
# [5] = target: T3, pre-formed NlpI-PBP4 complex (Escherichia coli, UniProt P0AFB1 20-294; P24228 21-477); assay: MST; fixed ligand concentration assay: labelled MepS, LpoA or PBP1A with fixed unlabelled NlpI, PBP4, PBP7 or pre-formed complexes (NlpI 3 μM with 30 μM PBP4 or PBP7 for fl-MepS and fl-LpoA; PBP4 0.5 μM with NlpI 1 μM for fl-PBP1A); FNorm, or raw fluorescence for LpoA
# T3 construct: NlpI of E. coli, soluble version lacking its membrane anchor, as the chain of m1; PBP4 of E. coli, native, as the chain of m5; NlpI 3 μM with excess PBP4 30 μM for assays with labelled MepS or LpoA; PBP4 0.5 μM with NlpI 1 μM for assays with labelled PBP1A; also called PBP4‐NlpI complex; PBP4‐NlpI; source: pre-formed from purified NlpI and purified PBP4, on ice for 10 min
# T3 sequence (P0AFB1 20-294, one chain of several): as the sequence (P0AFB1 20-294) above
binder,measurement,setting,value
"PBP7, purified (enzyme, Escherichia coli, UniProt P0AFI5 26-310, looked up, where used as the labelled protein in MST: NT647 RED-NHS dye on amines, PBP7 (DD-endopeptidase) of E. coli; source: E. coli BL21 (λDE3), purified (HisTrap HP, Superdex 200)) KTAAATTASQPEIASGSAMIVDLNTNKVIYSNHPDLVRPIASISKLMTAMVVLDARLPLDEKLKVDISQTPEMKGVYSRVRLNSEISRKDMLLLALMSSENRAAASLAHHYPGGYKAFIKAMNAKAKSLGMNNTRFVEPTGLSVHNVSTARDLTKLLIASKQYPLIGQLSTTREDMATFSNPTYTLPFRNTNHLVYRDNWNIQLTKTGFTNAAGHCLVMRTVINNKPVALVVMDAFGKYTHFADASRLRTWIETGKVMPVPAAALSYKKQKAAQMAAAGQTAQND",binding result,[1],binds
same,EC50,[2],422 nM
same,Kd,[3],217 nM
same,Kd,[4],101 nM
"MepS(C68A), catalytically inactive MepS (enzyme, Escherichia coli, UniProt P0AFV4 27-188, looked up, Peptidoglycan endopeptidase MepS of E. coli with C68A; the results call it MepS; source: E. coli BL21 (λDE3), purified (HisTrap HP, Superdex 200)) CSANNTAKNMHPETRAVGSETSSLQASQDEFENLVRNVDVKSRIMDQYADWKGVRYRLGGSTKKGIDASGFVQRTFREQFGLELPRSTYEQQEMGKSVSRSNLRTGDLVLFRAGSTGRHVGIYIGNNQFVHASTSSGVIISSMNEPYWKKRYNEARRVLSRS",Kd,[4],91 nM
B1,Kd,[3],315 nM
same,Kd,[4],106 nM
B2,binding result,[5],binds
"MepS (enzyme, Escherichia coli, UniProt P0AFV4 27-188, looked up, where used as fl-MepS in MST: NT647 RED-NHS dye on amines, Peptidoglycan endopeptidase MepS of E. coli, from pET21b-MepS-His (Singh et al, 2012); Construct from Singh et al, 2012; The methods list only MepS(C68A) as an unlabelled MST ligand; wild-type MepS is the labelled protein; also called fl-MepS (fluorescently labelled); MepS-His; source: E. coli BL21 (λDE3), purified (HisTrap HP, Superdex 200)) CSANNTAKNMHPETRAVGSETSSLQASQDEFENLVRNVDVKSRIMDQYADWKGVRYRLGGSTKKGIDCSGFVQRTFREQFGLELPRSTYEQQEMGKSVSRSNLRTGDLVLFRAGSTGRHVGIYIGNNQFVHASTSSGVIISSMNEPYWKKRYNEARRVLSRS",Kd,[2],145 nM
